This note sets out measurements from paper PMC5042879 (The Biochemical journal, 2016).

T1: (His)6-tagged erythrocyte cytoplasmic domain of band 3 (cdb3), wild type (UniProt P02730 1-403)
T1 sequence (looked up): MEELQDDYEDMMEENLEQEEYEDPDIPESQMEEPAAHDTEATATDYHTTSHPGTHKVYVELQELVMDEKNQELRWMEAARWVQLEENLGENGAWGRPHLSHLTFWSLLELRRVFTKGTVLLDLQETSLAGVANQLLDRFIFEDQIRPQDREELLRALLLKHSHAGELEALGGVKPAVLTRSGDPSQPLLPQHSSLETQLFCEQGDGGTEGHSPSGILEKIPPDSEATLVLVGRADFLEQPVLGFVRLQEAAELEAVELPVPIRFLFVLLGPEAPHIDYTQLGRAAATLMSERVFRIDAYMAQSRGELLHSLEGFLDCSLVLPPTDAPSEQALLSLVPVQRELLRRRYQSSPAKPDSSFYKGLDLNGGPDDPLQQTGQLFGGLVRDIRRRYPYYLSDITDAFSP

B1: (His)6-tagged kidney cytoplasmic domain of band 3 (kidney cdb3) (domain or fragment, UniProt P02730-2 1-338, looked up)
chain: MDEKNQELRWMEAARWVQLEENLGENGAWGRPHLSHLTFWSLLELRRVFTKGTVLLDLQETSLAGVANQLLDRFIFEDQIRPQDREELLRALLLKHSHAGELEALGGVKPAVLTRSGDPSQPLLPQHSSLETQLFCEQGDGGTEGHSPSGILEKIPPDSEATLVLVGRADFLEQPVLGFVRLQEAAELEAVELPVPIRFLFVLLGPEAPHIDYTQLGRAAATLMSERVFRIDAYMAQSRGELLHSLEGFLDCSLVLPPTDAPSEQALLSLVPVQRELLRRRYQSSPAKPDSSFYKGLDLNGGPDDPLQQTGQLFGGLVRDIRRRYPYYLSDITDAFSP
B2: GST-β-adducin tail (amino acids 335–726) (domain or fragment, UniProt P35612 335-726, looked up)
chain: EKHRPHEVGSVQWAGSTFGPMQKSRLGEHEFEALMRMLDNLGYRTGYTYRHPFVQEKTKHKSEVEIPATVTAFVFEEDGAPVPALRQHAQKQQKEKTRWLNTPNTYLRVNVADEVQRSMGSPRPKTTWMKADEVEKSSSGMPIRIENPNQFVPLYTDPQEVLEMRNKIREQNRQDVKSAGPQSQLLASVIAEKSRSPSTESQLMSKGDEDTKDDSEETVPNPFSQLTDQELEEYKKEVERKKLELDGEKETAPEEPGSPAKSAPASPVQSPAKEAETKSPLVSPSKSLEEGTKKTETSKAATTEPETTQPEGVVVNGREEEQTAEEILSKGLSQMTTSADTDVDTSKDKTESVTSGPMSPEGSPSKSPSKKKKKFRTPSFLKKSKKKEKVES

Test [1] has as its target B2. Description: pull-down.
For test [2], the target named is T1, (His)6-tagged erythrocyte cytoplasmic …. In words: pull-down.

One may read the Kd as a measure of binding affinity in units of concentration. Read a low Kd as higher affinity. In turn, B1 returned a Kd in test [1] of 280 nM. B2 displayed a Kd in test [2] of 260 nM.
